From patent publication US11653679B2, “High-purity steviol glycosides” (PureCircle Sdn Bhd, priority 2014, dated 2023)

B1: Example 7: UGT76G1 lysate prepared by pET30a+ plasmid and BL21 (DE3) expression strain (protein, UniProt Q6VAB4 1-458, looked up)
UDP-glycosyltransferase 76G1: MENKTETTVRRRRRIILFPVPFQGHINPILQLANVLYSKGFSITIFHTNFNKPKTSNYPHFTFRFILDNDPQDERISNLPTHGPLAGMRIPIINEHGADELRRELELLMLASEEDEEVSCLITDALWYFAQSVADSLNLRRLVLMTSSLFNFHAHVSLPQFDELGYLDPDDKTRLEEQASGFPMLKVKDIKSAYSNWQILKEILGKMIKQTKASSGVIWNSFKELEESELETVIREIPAPSFLIPLPKHLTASSSSLLDHDRTVFQWLDQQPPSSVLYVSFGSTSEVDEKDFLEIARGLVDSKQSFLWVVRPGFVKGSTWVEPLPDGFLGERGRIVKWVPQQEVLAHGAIGAFWTHSGWNSTLESVCEGVPMIFSDFGLDQPLNARYMSDVLKVGVYLENGWERGEIANAIRRVMVDEEGEYIRQNARVLKQKADVSLMKGGSSYESLESLVSYISSL
modifications: E. coli lysate, pET30a+
notes: UGT76G1 lysate prepared by pET30a+ plasmid and BL21 (DE3) expression strain
B2: Example 9: UGT76G1 lysate prepared by pMAL plasmid and BL21 expression strain (protein, UniProt Q6VAB4 1-458, looked up)
UDP-glycosyltransferase 76G1: MENKTETTVRRRRRIILFPVPFQGHINPILQLANVLYSKGFSITIFHTNFNKPKTSNYPHFTFRFILDNDPQDERISNLPTHGPLAGMRIPIINEHGADELRRELELLMLASEEDEEVSCLITDALWYFAQSVADSLNLRRLVLMTSSLFNFHAHVSLPQFDELGYLDPDDKTRLEEQASGFPMLKVKDIKSAYSNWQILKEILGKMIKQTKASSGVIWNSFKELEESELETVIREIPAPSFLIPLPKHLTASSSSLLDHDRTVFQWLDQQPPSSVLYVSFGSTSEVDEKDFLEIARGLVDSKQSFLWVVRPGFVKGSTWVEPLPDGFLGERGRIVKWVPQQEVLAHGAIGAFWTHSGWNSTLESVCEGVPMIFSDFGLDQPLNARYMSDVLKVGVYLENGWERGEIANAIRRVMVDEEGEYIRQNARVLKQKADVSLMKGGSSYESLESLVSYISSL
modifications: E. coli lysate, pMAL vector
notes: UGT76G1 lysate prepared by pMAL plasmid and BL21 expression strain
B3: Example 8: UGT76G1 lysate prepared by pET30a+ plasmid and Tuner (DE3) expression strain (protein, UniProt Q6VAB4 1-458, looked up)
UDP-glycosyltransferase 76G1: MENKTETTVRRRRRIILFPVPFQGHINPILQLANVLYSKGFSITIFHTNFNKPKTSNYPHFTFRFILDNDPQDERISNLPTHGPLAGMRIPIINEHGADELRRELELLMLASEEDEEVSCLITDALWYFAQSVADSLNLRRLVLMTSSLFNFHAHVSLPQFDELGYLDPDDKTRLEEQASGFPMLKVKDIKSAYSNWQILKEILGKMIKQTKASSGVIWNSFKELEESELETVIREIPAPSFLIPLPKHLTASSSSLLDHDRTVFQWLDQQPPSSVLYVSFGSTSEVDEKDFLEIARGLVDSKQSFLWVVRPGFVKGSTWVEPLPDGFLGERGRIVKWVPQQEVLAHGAIGAFWTHSGWNSTLESVCEGVPMIFSDFGLDQPLNARYMSDVLKVGVYLENGWERGEIANAIRRVMVDEEGEYIRQNARVLKQKADVSLMKGGSSYESLESLVSYISSL
modifications: E. coli Tuner (DE3) lysate, pET30a+
notes: UGT76G1 lysate prepared by pET30a+ plasmid and Tuner (DE3) expression strain
B4: Example 11: UGT76G1 lysate prepared by pCOLDIII plasmid and ArcticExpress expression strain (protein, UniProt Q6VAB4 1-458, looked up)
UDP-glycosyltransferase 76G1: MENKTETTVRRRRRIILFPVPFQGHINPILQLANVLYSKGFSITIFHTNFNKPKTSNYPHFTFRFILDNDPQDERISNLPTHGPLAGMRIPIINEHGADELRRELELLMLASEEDEEVSCLITDALWYFAQSVADSLNLRRLVLMTSSLFNFHAHVSLPQFDELGYLDPDDKTRLEEQASGFPMLKVKDIKSAYSNWQILKEILGKMIKQTKASSGVIWNSFKELEESELETVIREIPAPSFLIPLPKHLTASSSSLLDHDRTVFQWLDQQPPSSVLYVSFGSTSEVDEKDFLEIARGLVDSKQSFLWVVRPGFVKGSTWVEPLPDGFLGERGRIVKWVPQQEVLAHGAIGAFWTHSGWNSTLESVCEGVPMIFSDFGLDQPLNARYMSDVLKVGVYLENGWERGEIANAIRRVMVDEEGEYIRQNARVLKQKADVSLMKGGSSYESLESLVSYISSL
modifications: E. coli ArcticExpress lysate, pCOLDIII
notes: UGT76G1 lysate prepared by pCOLDIII plasmid and ArcticExpress expression strain
B5: Example 10: UGT76G1 lysate prepared by pMAL plasmid and ArcticExpress expression strain (protein, UniProt Q6VAB4 1-458, looked up)
UDP-glycosyltransferase 76G1: MENKTETTVRRRRRIILFPVPFQGHINPILQLANVLYSKGFSITIFHTNFNKPKTSNYPHFTFRFILDNDPQDERISNLPTHGPLAGMRIPIINEHGADELRRELELLMLASEEDEEVSCLITDALWYFAQSVADSLNLRRLVLMTSSLFNFHAHVSLPQFDELGYLDPDDKTRLEEQASGFPMLKVKDIKSAYSNWQILKEILGKMIKQTKASSGVIWNSFKELEESELETVIREIPAPSFLIPLPKHLTASSSSLLDHDRTVFQWLDQQPPSSVLYVSFGSTSEVDEKDFLEIARGLVDSKQSFLWVVRPGFVKGSTWVEPLPDGFLGERGRIVKWVPQQEVLAHGAIGAFWTHSGWNSTLESVCEGVPMIFSDFGLDQPLNARYMSDVLKVGVYLENGWERGEIANAIRRVMVDEEGEYIRQNARVLKQKADVSLMKGGSSYESLESLVSYISSL
modifications: E. coli lysate, pMAL
notes: UGT76G1 lysate prepared by pMAL plasmid and ArcticExpress expression strain

Experiments:
[1] = Transformation of Stevioside to Rebaudioside A with UGT76G1 lysate (Examples 4, 13), HPLC; assay type: biochemical; settings: per mL of lysate; 1 U transforms 1 μmol in 1 hour at 30° C. and pH 7.2
Procedure: The total volume of the reaction was 5.0 mL with the following composition: 50 mM sodium phosphate buffer pH 7.2, 3 mM MgCl2, 2.5 mM UDP-glucose, 0.5 mM Stevioside and 500 μl, of UGT76G1 thawed lysate. The reactions were run at 30° C. on an orbitary shaker at 135 rpm. For each sample, 460 μL of the reaction mixture was quenched with 40 μL of 2N H2SO4 and 420 μL of methanol/water (6/4). The samples were immediately centrifuged and kept at 10° C. before analysis by HPLC (CAD).
(§1) Activity tests were performed on a 5 mL scale with 500 μL of thawed lysate for the transformation of Stevioside to Rebaudioside A and Rebaudioside D to Rebaudioside M using 0.5 mM of substrate, 2.5 mM of UDP-Glucose and 3 mM MgCl2 in 50 mM Sodium Phosphate buffer at pH 7.2. Samples were taken and analyzed by HPLC.

[2] = Transformation of Rebaudioside D to Rebaudioside M with UGT76G1 (Examples 6, 13), HPLC; assay type: biochemical; settings: per mL of lysate; 1 U transforms 1 μmol in 1 hour at 30° C. and pH 7.2
Procedure: The total volume of the reaction was 2 mL with the following composition: 50 mM sodium phosphate buffer pH 7.2, 3 mM MgCl2, 3.8 mM UDP-glucose, 0.5 mM Rebaudioside D and 180 μL of in-vitro produced UGT76G1. The reactions were run at 30° C. on an orbitary shaker at 135 rpm. For each sample, 400 μL of reaction mixture was quenched with 40 μL of 2N H2SO4 and 360 μL of 60% MeOH. After centrifugation, the supernatant was analyzed by HPLC (CAD).
as §1

| Molecule | Transformation activity Stevioside to Rebaudioside A [1] [U mL^−1] | Transformation activity Rebaudioside D to Rebaudioside M [2] [U mL^−1] |
| --- | --- | --- |
| B1 | 29 | 0.31 |
| B2 | 20 | 0.15 |
| B3 | 33 | 0.40 |
| B4 | 15 | 0.11 |
| B5 | 15 | 0.25 |
